B1: Clone 10 IgG (Fc fusion)
chain: QSALTQPASVSGSPGQSITISCTGTSSDVGGYNYVSWYQQHPGKAPKLMIYEVSNRPSGVSNRFSGSKSGNTASLTISGLQAEDEADYYCSSYTSSSTYVFGTGTKVTVLGSRGGGGSGGGGSGGGGSLEQITLKESGPTLVKPTQTLTLTCTFSGFSLSTSGVGVGWIRQPPGKALEWLALIYWDDDKRYSPSLKSRLTITKDTSKNQVVLTMTNMDPVDTATYYCARYAGQYSGMWPWDYWGQGTLVTVSS
notes: also called anti-BAFF-R IgG; not shown: human IgG4 Fc
B2: Clone 10 (phage-displayed scFv monoclonal) (scFv)
scFv: B1 chain
notes: the phage coat protein fusion is not described; also called #10号克隆

Experiments:
[1] = biological target: T1, Streptavidin, Pierce 21125 (UniProt P22629 37-163, limits assumed); assay: ELISA with purified IgG-form antibody
T1 construct: Control protein coated on the plate; also called SA; Strepavidin
T1 sequence (P22629 37-163 limits assumed): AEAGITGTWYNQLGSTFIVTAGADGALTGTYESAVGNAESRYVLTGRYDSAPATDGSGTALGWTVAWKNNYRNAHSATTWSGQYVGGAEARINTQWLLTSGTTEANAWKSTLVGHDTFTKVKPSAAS

[2] = biological target: T2, human-IL10-his-Bio, Kactus IL1-HM410B (human, UniProt P22301 19-178, biotinylated); assay: ELISA with purified IgG-form antibody
T2 construct: Unrelated control antigen; also called Kactus-IL10-Bio-his; not shown: his tag and biotin label
T2 sequence (P22301 19-178): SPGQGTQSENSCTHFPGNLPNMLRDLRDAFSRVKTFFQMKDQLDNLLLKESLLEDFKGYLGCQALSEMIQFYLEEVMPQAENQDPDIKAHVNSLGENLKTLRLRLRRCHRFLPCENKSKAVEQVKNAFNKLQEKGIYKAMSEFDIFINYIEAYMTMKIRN

[3] = biological target: T3, Recombinant biotinylated Human BAFF-R Protein, Kactus BAF-HM40RB (human, UniProt Q96RJ3 1-78, biotinylated); assay: BLI, IgG on the sensor, antigen 100 to 6.25 nM, 1:1 model
T3 construct: Bought; also called Kactus BAFF-R-his-Bio; Kactus BAFFR-his bio; not shown: his tag and biotin label
T3 sequence (looked up): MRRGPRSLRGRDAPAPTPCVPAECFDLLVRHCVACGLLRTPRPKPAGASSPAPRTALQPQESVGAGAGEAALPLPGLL

[4] = biological target: T1, Streptavidin, Pierce 21125; assay: phage ELISA
[5] = biological target: T4, Biotinylated Human CD27 Ligand, HIS, Avitag, ACRObiosystem CDL-H82Q9 (human, UniProt P32970 39-193, limits assumed, biotinylated); assay: phage ELISA
T4 construct: Unrelated control antigen; also called ACRO-CD70-his; Acro-CD70-his; not shown: HIS tag and Avitag
T4 sequence (looked up): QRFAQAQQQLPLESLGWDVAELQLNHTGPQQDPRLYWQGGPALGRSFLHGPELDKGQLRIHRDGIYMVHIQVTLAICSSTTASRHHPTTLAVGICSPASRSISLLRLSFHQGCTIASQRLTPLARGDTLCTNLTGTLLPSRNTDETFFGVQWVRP

[6] = biological target: T5, Recombinant biotinylated Human CD19 Protein, Kactus CD2-HE121 (human, UniProt P15391 20-291, biotinylated); assay: phage ELISA
T5 construct: Unrelated control antigen; also called Kactus-CD19-Fc; not shown: Fc by the short name
T5 sequence (looked up): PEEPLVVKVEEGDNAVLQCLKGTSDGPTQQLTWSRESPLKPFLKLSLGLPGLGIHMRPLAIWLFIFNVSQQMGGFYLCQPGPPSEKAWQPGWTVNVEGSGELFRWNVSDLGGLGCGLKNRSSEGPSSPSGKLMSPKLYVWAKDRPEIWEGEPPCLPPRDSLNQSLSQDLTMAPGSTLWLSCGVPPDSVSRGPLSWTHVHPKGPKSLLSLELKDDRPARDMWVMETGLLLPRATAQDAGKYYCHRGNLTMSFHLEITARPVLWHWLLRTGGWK

Row | Binder | binding result [1] | binding result [2] | Kd [3] [nM] | koff [3] [s⁻¹] | kon [3] [M⁻¹ s⁻¹] | binding result [4] | binding result [5] | binding result [6]
1 | B1 | no binding | no binding | 0.762 | 8.72e-05 | 114000 | – | – | –
2 | B2 | – | – | – | – | – | no binding | no binding | no binding

Source: patent CN116041515A (NANJING IASO BIOTHERAPEUTICS TECH CO LTD, dated 2023)
